40 sequences from the supplement of paper PMC6755084 can be followed below.

For the series, the system named is F1*sub RNA substrate (template-directed ligation). The series is described as follows: fraction ligated after 30 min (ligated reads / total reads); higher = more ligase activity; sequences stand for … in GAGACCGCAACTGAAAAGTTGT…AGTTCTGCACGTAGAAGCAAAAGGC
The note with it: 42 °C. In short, it runs like this:
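The ligase ribozyme variants were produced by PCR amplification of oligo-pool templates, T7 transcription and purification on gel. Their ligated and unligated forms were gel-separated, then reverse transcribed with barcoded primers before MiSeq sequencing. Core bases were filtered at a quality of ≥20, and fraction ligated per variant was ligated reads over total reads.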
The sequence “TATCACTTGTGTAGACACTTTGGAGGGTTGA [3d1740]” returned a fraction ligated of 0.0783.

In the case of “TATCACTTGTGTAGACACTTTGGATGGGTTA [3d1742]”, the fraction ligated was 0.828.

“TATCACTTGTGTAGACACTTTGGATGGGTTG [3d1743]” gave a fraction ligated of 0.863.

Take “TATCACTTGTGTAGACACTTTGGATGGGTTGA [2d181]”: the fraction ligated was 0.871.

Sequence “TATCACTTGTGTAGACACTTTGGATGGTTGA [3d1741]” returned a fraction ligated of 0.252.

“TATCACTTGTGTAGACACTTTGGTGGGTTGA [3d1739]” returned a fraction ligated of 0.105.

For “TATCACTTGTGTAGACATTTGGATGGGTTGA [3d1736]”, the fraction ligated amounted to 0.883.

With “TATCACTTGTGTAGACCTTTGGATGGGTTGA [3d1735]”, the fraction ligated turned out to be 0.845.

The sequence “TATCACTTGTGTAGCACTTTGGATGGGTTGA [3d1733]” showed a fraction ligated of 0.841.

In the case of “TATCACTTGTGTGACACTTTGGATGGGTTGA [3d1731]”, the fraction ligated came to 0.826.

On to “TATCACTTGTTAAACACTTTGGATGGGTTGA [3d1706]”, for which the fraction ligated is 0.842.

Regarding “TATCACTTGTTAAGAACTTTGGATGGGTTGA [3d1708]”, the fraction ligated came to 0.874.

Regarding “TATCACTTGTTAAGACACTTGGATGGGTTGA [3d1711]”, the fraction ligated worked out at 0.784.

As to “TATCACTTGTTAAGACACTTTGATGGGTTGA [3d1712]”, the fraction ligated came to 0.786.

As for “TATCACTTGTTAAGACACTTTGGAGGGTTGA [3d1714]”, the fraction ligated came out at 0.111.

Sequence “TATCACTTGTTAAGACACTTTGGATGGGTTA [3d1716]” yielded a fraction ligated of 0.778.

On to “TATCACTTGTTAAGACACTTTGGATGGGTTG [3d1717]”, for which the fraction ligated amounted to 0.83.

“TATCACTTGTTAAGACACTTTGGATGGGTTGA [2d179]” gave a fraction ligated of 0.859.

With “TATCACTTGTTAAGACACTTTGGATGGTTGA [3d1715]”, the fraction ligated is 0.348.

In turn, “TATCACTTGTTAAGACACTTTGGTGGGTTGA [3d1713]” showed a fraction ligated of 0.111.

“TATCACTTGTTAAGACATTTGGATGGGTTGA [3d1710]” showed a fraction ligated of 0.835.

For “TATCACTTGTTAAGACCTTTGGATGGGTTGA [3d1709]”, the fraction ligated amounted to 0.785.

In the case of “TATCACTTGTTAAGCACTTTGGATGGGTTGA [3d1707]”, the fraction ligated is 0.797.

For the sequence “TATCACTTGTTAGACACTTTGGATGGGTTGA [3d1705]”, the fraction ligated was found to be 0.842.

With “TATCACTTTCAAGACACTTTGGATGGGTTGA [3d1479]”, the fraction ligated amounted to 0.772.

“TATCACTTTCGAAACACTTTGGATGGGTTGA [3d1494]” registered a fraction ligated of 0.795.

As for “TATCACTTTCGAAGAACTTTGGATGGGTTGA [3d1496]”, the fraction ligated was found to be 0.843.

With “TATCACTTTCGAAGACACTTGGATGGGTTGA [3d1499]”, the fraction ligated turned out to be 0.779.

Consider “TATCACTTTCGAAGACACTTTGATGGGTTGA [3d1500]”, for which the fraction ligated amounted to 0.767.

In turn, “TATCACTTTCGAAGACACTTTGGAGGGTTGA [3d1502]” registered a fraction ligated of 0.0243.

Consider “TATCACTTTCGAAGACACTTTGGATGGGTTA [3d1504]”, for which the fraction ligated came to 0.382.

With “TATCACTTTCGAAGACACTTTGGATGGGTTG [3d1505]”, the fraction ligated was determined as 0.792.

In turn, “TATCACTTTCGAAGACACTTTGGATGGGTTGA [2d149]” displayed a fraction ligated of 0.797.

For the sequence “TATCACTTTCGAAGACACTTTGGATGGTTGA [3d1503]”, the fraction ligated came out at 0.0707.

The sequence “TATCACTTTCGAAGACACTTTGGTGGGTTGA [3d1501]” registered a fraction ligated of 0.0423.

Take “TATCACTTTCGAAGACATTTGGATGGGTTGA [3d1498]”: the fraction ligated was determined as 0.769.

Sequence “TATCACTTTCGAAGACCTTTGGATGGGTTGA [3d1497]” yielded a fraction ligated of 0.765.

“TATCACTTTCGAAGCACTTTGGATGGGTTGA [3d1495]” came in with a fraction ligated of 0.766.

As to “TATCACTTTCGAGACACTTTGGATGGGTTGA [3d1493]”, the fraction ligated is 0.79.

“TATCACTTTCGTAAAACTTTGGATGGGTTGA [3d1519]” had a fraction ligated of 0.823.
